For six molecules, Ki results are on record in patent publication US20210139548A1 (published 2021).

*1 amine or outer side, *2 acyl side, *3 side chain or, on linkers, in order; H or OH if unused. Side-chain parts run from the residue outwards. The star is where a group is joined. C18 diacid = O=C(O)CCCCCCCCCCCCCCCCC(=O)*; γGlu = O=C(O)[C@H](CCC(=O)[*:2])N[*:1]; Isovaleryl = CC(C)CC(=O)*; AEEA = NCCOCCOCC(=O)O

In general, Ki refers to a dissociation constant, usually derived from enzyme kinetics or from competition with a known ligand. A high value points to a looser hold on the target.

B1: Compound 101 (peptide)
peptide: Isovaleryl-APEK([AEEA-AEEA-γGlu-C18 diacid])PEEDATPEELQRYYVELRHYYNWLTRQRY-NH2
SMILES: CC(C)CC(=O)N[C@@H](C)C(=O)N1CCC[C@H]1C(=O)N[C@@H](CCC(=O)O)C(=O)N[C@@H](CCCCNC(=O)COCCOCCNC(=O)COCCOCCNC(=O)CC[C@H](NC(=O)CCCCCCCCCCCCCCCCC(=O)O)C(=O)O)C(=O)N1CCC[C@H]1C(=O)N[C@@H](CCC(=O)O)C(=O)N[C@@H](CCC(=O)O)C(=O)N[C@@H](CC(=O)O)C(=O)N[C@@H](C)C(=O)N[C@H](C(=O)N1CCC[C@H]1C(=O)N[C@@H](CCC(=O)O)C(=O)N[C@@H](CCC(=O)O)C(=O)N[C@@H](CC(C)C)C(=O)N[C@@H](CCC(N)=O)C(=O)N[C@@H](CCCNC(=N)N)C(=O)N[C@@H](Cc1ccc(O)cc1)C(=O)N[C@@H](Cc1ccc(O)cc1)C(=O)N[C@H](C(=O)N[C@@H](CCC(=O)O)C(=O)N[C@@H](CC(C)C)C(=O)N[C@@H](CCCNC(=N)N)C(=O)N[C@@H](Cc1c[nH]cn1)C(=O)N[C@@H](Cc1ccc(O)cc1)C(=O)N[C@@H](Cc1ccc(O)cc1)C(=O)N[C@@H](CC(N)=O)C(=O)N[C@@H](Cc1c[nH]c2ccccc12)C(=O)N[C@@H](CC(C)C)C(=O)N[C@H](C(=O)N[C@@H](CCCNC(=N)N)C(=O)N[C@@H](CCC(N)=O)C(=O)N[C@@H](CCCNC(=N)N)C(=O)N[C@@H](Cc1ccc(O)cc1)C(N)=O)[C@@H](C)O)C(C)C)[C@@H](C)O
B2: Compound 108 (peptide)
peptide: Isovaleryl-APEK([AEEA-AEEA-γGlu-C18 diacid])PEEDASPEELQRYYVELRHYYNWLTRQRY-NH2
SMILES: CC(C)CC(=O)N[C@@H](C)C(=O)N1CCC[C@H]1C(=O)N[C@@H](CCC(=O)O)C(=O)N[C@@H](CCCCNC(=O)COCCOCCNC(=O)COCCOCCNC(=O)CC[C@H](NC(=O)CCCCCCCCCCCCCCCCC(=O)O)C(=O)O)C(=O)N1CCC[C@H]1C(=O)N[C@@H](CCC(=O)O)C(=O)N[C@@H](CCC(=O)O)C(=O)N[C@@H](CC(=O)O)C(=O)N[C@@H](C)C(=O)N[C@@H](CO)C(=O)N1CCC[C@H]1C(=O)N[C@@H](CCC(=O)O)C(=O)N[C@@H](CCC(=O)O)C(=O)N[C@@H](CC(C)C)C(=O)N[C@@H](CCC(N)=O)C(=O)N[C@@H](CCCNC(=N)N)C(=O)N[C@@H](Cc1ccc(O)cc1)C(=O)N[C@@H](Cc1ccc(O)cc1)C(=O)N[C@H](C(=O)N[C@@H](CCC(=O)O)C(=O)N[C@@H](CC(C)C)C(=O)N[C@@H](CCCNC(=N)N)C(=O)N[C@@H](Cc1c[nH]cn1)C(=O)N[C@@H](Cc1ccc(O)cc1)C(=O)N[C@@H](Cc1ccc(O)cc1)C(=O)N[C@@H](CC(N)=O)C(=O)N[C@@H](Cc1c[nH]c2ccccc12)C(=O)N[C@@H](CC(C)C)C(=O)N[C@H](C(=O)N[C@@H](CCCNC(=N)N)C(=O)N[C@@H](CCC(N)=O)C(=O)N[C@@H](CCCNC(=N)N)C(=O)N[C@@H](Cc1ccc(O)cc1)C(N)=O)[C@@H](C)O)C(C)C
B3: Compound 102 (peptide)
peptide: Isovaleryl-APEK([AEEA-AEEA-γGlu-C18 diacid])PEEDASPEELQRYYVTLRHYYNWLTRQRY-NH2
SMILES: CC(C)CC(=O)N[C@@H](C)C(=O)N1CCC[C@H]1C(=O)N[C@@H](CCC(=O)O)C(=O)N[C@@H](CCCCNC(=O)COCCOCCNC(=O)COCCOCCNC(=O)CC[C@H](NC(=O)CCCCCCCCCCCCCCCCC(=O)O)C(=O)O)C(=O)N1CCC[C@H]1C(=O)N[C@@H](CCC(=O)O)C(=O)N[C@@H](CCC(=O)O)C(=O)N[C@@H](CC(=O)O)C(=O)N[C@@H](C)C(=O)N[C@@H](CO)C(=O)N1CCC[C@H]1C(=O)N[C@@H](CCC(=O)O)C(=O)N[C@@H](CCC(=O)O)C(=O)N[C@@H](CC(C)C)C(=O)N[C@@H](CCC(N)=O)C(=O)N[C@@H](CCCNC(=N)N)C(=O)N[C@@H](Cc1ccc(O)cc1)C(=O)N[C@@H](Cc1ccc(O)cc1)C(=O)N[C@H](C(=O)N[C@H](C(=O)N[C@@H](CC(C)C)C(=O)N[C@@H](CCCNC(=N)N)C(=O)N[C@@H](Cc1c[nH]cn1)C(=O)N[C@@H](Cc1ccc(O)cc1)C(=O)N[C@@H](Cc1ccc(O)cc1)C(=O)N[C@@H](CC(N)=O)C(=O)N[C@@H](Cc1c[nH]c2ccccc12)C(=O)N[C@@H](CC(C)C)C(=O)N[C@H](C(=O)N[C@@H](CCCNC(=N)N)C(=O)N[C@@H](CCC(N)=O)C(=O)N[C@@H](CCCNC(=N)N)C(=O)N[C@@H](Cc1ccc(O)cc1)C(N)=O)[C@@H](C)O)[C@@H](C)O)C(C)C
B4: Compound 107 (peptide)
peptide: Isovaleryl-APEK([AEEA-AEEA-γGlu-C18 diacid])PEEDASPEELQKYYVALRHYYNWLTRQRY-NH2
SMILES: CC(C)CC(=O)N[C@@H](C)C(=O)N1CCC[C@H]1C(=O)N[C@@H](CCC(=O)O)C(=O)N[C@@H](CCCCNC(=O)COCCOCCNC(=O)COCCOCCNC(=O)CC[C@H](NC(=O)CCCCCCCCCCCCCCCCC(=O)O)C(=O)O)C(=O)N1CCC[C@H]1C(=O)N[C@@H](CCC(=O)O)C(=O)N[C@@H](CCC(=O)O)C(=O)N[C@@H](CC(=O)O)C(=O)N[C@@H](C)C(=O)N[C@@H](CO)C(=O)N1CCC[C@H]1C(=O)N[C@@H](CCC(=O)O)C(=O)N[C@@H](CCC(=O)O)C(=O)N[C@@H](CC(C)C)C(=O)N[C@@H](CCC(N)=O)C(=O)N[C@@H](CCCCN)C(=O)N[C@@H](Cc1ccc(O)cc1)C(=O)N[C@@H](Cc1ccc(O)cc1)C(=O)N[C@H](C(=O)N[C@@H](C)C(=O)N[C@@H](CC(C)C)C(=O)N[C@@H](CCCNC(=N)N)C(=O)N[C@@H](Cc1c[nH]cn1)C(=O)N[C@@H](Cc1ccc(O)cc1)C(=O)N[C@@H](Cc1ccc(O)cc1)C(=O)N[C@@H](CC(N)=O)C(=O)N[C@@H](Cc1c[nH]c2ccccc12)C(=O)N[C@@H](CC(C)C)C(=O)N[C@H](C(=O)N[C@@H](CCCNC(=N)N)C(=O)N[C@@H](CCC(N)=O)C(=O)N[C@@H](CCCNC(=N)N)C(=O)N[C@@H](Cc1ccc(O)cc1)C(N)=O)[C@@H](C)O)C(C)C
B5: Compound 103 (peptide)
peptide: Isovaleryl-APAK([AEEA-AEEA-γGlu-C18 diacid])PEEDASEEELQRYYVSLRHYYNWLTRQRY-NH2
SMILES: CC(C)CC(=O)N[C@@H](C)C(=O)N1CCC[C@H]1C(=O)N[C@@H](C)C(=O)N[C@@H](CCCCNC(=O)COCCOCCNC(=O)COCCOCCNC(=O)CC[C@H](NC(=O)CCCCCCCCCCCCCCCCC(=O)O)C(=O)O)C(=O)N1CCC[C@H]1C(=O)N[C@@H](CCC(=O)O)C(=O)N[C@@H](CCC(=O)O)C(=O)N[C@@H](CC(=O)O)C(=O)N[C@@H](C)C(=O)N[C@@H](CO)C(=O)N[C@@H](CCC(=O)O)C(=O)N[C@@H](CCC(=O)O)C(=O)N[C@@H](CCC(=O)O)C(=O)N[C@@H](CC(C)C)C(=O)N[C@@H](CCC(N)=O)C(=O)N[C@@H](CCCNC(=N)N)C(=O)N[C@@H](Cc1ccc(O)cc1)C(=O)N[C@@H](Cc1ccc(O)cc1)C(=O)N[C@H](C(=O)N[C@@H](CO)C(=O)N[C@@H](CC(C)C)C(=O)N[C@@H](CCCNC(=N)N)C(=O)N[C@@H](Cc1c[nH]cn1)C(=O)N[C@@H](Cc1ccc(O)cc1)C(=O)N[C@@H](Cc1ccc(O)cc1)C(=O)N[C@@H](CC(N)=O)C(=O)N[C@@H](Cc1c[nH]c2ccccc12)C(=O)N[C@@H](CC(C)C)C(=O)N[C@H](C(=O)N[C@@H](CCCNC(=N)N)C(=O)N[C@@H](CCC(N)=O)C(=O)N[C@@H](CCCNC(=N)N)C(=O)N[C@@H](Cc1ccc(O)cc1)C(N)=O)[C@@H](C)O)C(C)C
B6: Compound 109 (peptide)
peptide: Isovaleryl-APEK([AEEA-AEEA-γGlu-C18 diacid])PEEAASPEELQRYYVSLRHYYNWLTRQRY-NH2
SMILES: CC(C)CC(=O)N[C@@H](C)C(=O)N1CCC[C@H]1C(=O)N[C@@H](CCC(=O)O)C(=O)N[C@@H](CCCCNC(=O)COCCOCCNC(=O)COCCOCCNC(=O)CC[C@H](NC(=O)CCCCCCCCCCCCCCCCC(=O)O)C(=O)O)C(=O)N1CCC[C@H]1C(=O)N[C@@H](CCC(=O)O)C(=O)N[C@@H](CCC(=O)O)C(=O)N[C@@H](C)C(=O)N[C@@H](C)C(=O)N[C@@H](CO)C(=O)N1CCC[C@H]1C(=O)N[C@@H](CCC(=O)O)C(=O)N[C@@H](CCC(=O)O)C(=O)N[C@@H](CC(C)C)C(=O)N[C@@H](CCC(N)=O)C(=O)N[C@@H](CCCNC(=N)N)C(=O)N[C@@H](Cc1ccc(O)cc1)C(=O)N[C@@H](Cc1ccc(O)cc1)C(=O)N[C@H](C(=O)N[C@@H](CO)C(=O)N[C@@H](CC(C)C)C(=O)N[C@@H](CCCNC(=N)N)C(=O)N[C@@H](Cc1c[nH]cn1)C(=O)N[C@@H](Cc1ccc(O)cc1)C(=O)N[C@@H](Cc1ccc(O)cc1)C(=O)N[C@@H](CC(N)=O)C(=O)N[C@@H](Cc1c[nH]c2ccccc12)C(=O)N[C@@H](CC(C)C)C(=O)N[C@H](C(=O)N[C@@H](CCCNC(=N)N)C(=O)N[C@@H](CCC(N)=O)C(=O)N[C@@H](CCCNC(=N)N)C(=O)N[C@@H](Cc1ccc(O)cc1)C(N)=O)[C@@H](C)O)C(C)C

This assay concerns the target T1, human neuropeptide Y2 receptor (human, UniProt P49146 1-381).
T1 construct: whole, on cells; also called hNPY2 receptor; hNPY2-R
T1 sequence (looked up): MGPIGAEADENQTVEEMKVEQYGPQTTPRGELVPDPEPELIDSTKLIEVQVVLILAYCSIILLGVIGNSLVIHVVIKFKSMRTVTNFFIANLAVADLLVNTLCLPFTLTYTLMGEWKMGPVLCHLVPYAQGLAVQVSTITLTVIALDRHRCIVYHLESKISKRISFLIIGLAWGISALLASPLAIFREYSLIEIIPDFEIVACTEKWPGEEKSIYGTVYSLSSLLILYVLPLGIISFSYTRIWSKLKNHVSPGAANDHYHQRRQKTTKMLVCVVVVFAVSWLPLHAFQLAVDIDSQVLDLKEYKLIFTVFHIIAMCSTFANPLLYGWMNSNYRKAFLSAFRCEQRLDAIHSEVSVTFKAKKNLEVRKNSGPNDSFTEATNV
Briefly: radioligand competition (125I-PYY(1-36)), hNPY2R membranes. In short, it runs like this:
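Commercial human Y2 receptor membranes (0.5 μg protein/well) were incubated with peptide for 2 h at room temperature in 50 mM HEPES, 5 mM MgCl₂, 1 mM CaCl₂, pH 7.4, with 0.2% ovalbumin. Bound radioligand was separated on PEI-soaked GF/C filters and counted by scintillation, and IC₅₀ came from nonlinear sigmoidal regression.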
With B1, the Ki was determined as 3.29 nM. For the molecule B2, the Ki came to 0.99 nM. The molecule B3 displayed a Ki of 0.87 nM.

B4 had a Ki of 1.1 nM. The Ki values of the last two molecules are within 1.5-fold of each other.

As for B5, the affinity, expressed as Ki, was 0.95 nM. In turn, B6 registered a Ki of 0.94 nM. The Ki values of the last two molecules are within 1.5-fold of each other.
